Data reported in article PMC12295664.
Values belong to the substance of their own block, whether it stands above or below them.

What was measured:
[1] = molecular target: F-actin of rabbit psoas ghost muscle fibers (rabbit (endogenous in psoas muscle fibers)) (UniProt P68135); assay: reconstitution of ghost muscle fibers, washing, SDS-PAGE densitometry; single rabbit psoas ghost fibers (F-actin held in the fiber) incubated with troponin, tropomyosin and S1 at 1.0–2.5 mg/mL in 50 mM KCl, 3 mM MgCl2, 1 mM DTT, 6.7 mM K,Na–phosphate pH 7.0; unbound protein washed off; 5–10 fibers on SDS-PAGE, bands quantified with calibration curves; average molar ratios to actin
[2] = molecular target: AEDANS–S1 (myosin subfragment-1 labeled with 1,5-IAEDANS at Cys707); assay: polarized fluorescence of AEDANS-S1 in ghost fibers; details: read off a plot
[3] = scale: mol actin per mol tropomyosin
[4] = S1 (no nucleotide), Actin + Tpm + Tn, + Ca2+, parent: est. 0.16
[5] = S1 (no nucleotide), Actin + Tpm + Tn, - Ca2+, parent: est. 0.14
[6] = S1 + ADP, Actin + Tpm + Tn, + Ca2+, parent: est. 0.16
[7] = S1 + ADP, Actin + Tpm + Tn, - Ca2+, parent: est. 0.18
[8] = S1 + ATP, Actin + Tpm + Tn, + Ca2+, parent: est. 0.46
[9] = S1 + ATP, Actin + Tpm + Tn, - Ca2+, parent: est. 0.36
[10] = S1 (no nucleotide), Actin + Tpm + Tn, - Ca2+, parent: est. 0.26
[11] = S1 + ADP, Actin + Tpm + Tn, + Ca2+, parent: est. 0.17
[12] = S1 + ADP, Actin + Tpm + Tn, - Ca2+, parent: est. 0.27
[13] = S1 + ATP, Actin + Tpm + Tn, - Ca2+, parent: est. 0.46
[14] = S1 + Tpm, no troponin, no nucleotide, parent: est. 0.16

Chain of myosin subfragment-1 (S1), lacking regulatory light chains (domain or fragment) (Q28641 whole entry, the tested form may be a part): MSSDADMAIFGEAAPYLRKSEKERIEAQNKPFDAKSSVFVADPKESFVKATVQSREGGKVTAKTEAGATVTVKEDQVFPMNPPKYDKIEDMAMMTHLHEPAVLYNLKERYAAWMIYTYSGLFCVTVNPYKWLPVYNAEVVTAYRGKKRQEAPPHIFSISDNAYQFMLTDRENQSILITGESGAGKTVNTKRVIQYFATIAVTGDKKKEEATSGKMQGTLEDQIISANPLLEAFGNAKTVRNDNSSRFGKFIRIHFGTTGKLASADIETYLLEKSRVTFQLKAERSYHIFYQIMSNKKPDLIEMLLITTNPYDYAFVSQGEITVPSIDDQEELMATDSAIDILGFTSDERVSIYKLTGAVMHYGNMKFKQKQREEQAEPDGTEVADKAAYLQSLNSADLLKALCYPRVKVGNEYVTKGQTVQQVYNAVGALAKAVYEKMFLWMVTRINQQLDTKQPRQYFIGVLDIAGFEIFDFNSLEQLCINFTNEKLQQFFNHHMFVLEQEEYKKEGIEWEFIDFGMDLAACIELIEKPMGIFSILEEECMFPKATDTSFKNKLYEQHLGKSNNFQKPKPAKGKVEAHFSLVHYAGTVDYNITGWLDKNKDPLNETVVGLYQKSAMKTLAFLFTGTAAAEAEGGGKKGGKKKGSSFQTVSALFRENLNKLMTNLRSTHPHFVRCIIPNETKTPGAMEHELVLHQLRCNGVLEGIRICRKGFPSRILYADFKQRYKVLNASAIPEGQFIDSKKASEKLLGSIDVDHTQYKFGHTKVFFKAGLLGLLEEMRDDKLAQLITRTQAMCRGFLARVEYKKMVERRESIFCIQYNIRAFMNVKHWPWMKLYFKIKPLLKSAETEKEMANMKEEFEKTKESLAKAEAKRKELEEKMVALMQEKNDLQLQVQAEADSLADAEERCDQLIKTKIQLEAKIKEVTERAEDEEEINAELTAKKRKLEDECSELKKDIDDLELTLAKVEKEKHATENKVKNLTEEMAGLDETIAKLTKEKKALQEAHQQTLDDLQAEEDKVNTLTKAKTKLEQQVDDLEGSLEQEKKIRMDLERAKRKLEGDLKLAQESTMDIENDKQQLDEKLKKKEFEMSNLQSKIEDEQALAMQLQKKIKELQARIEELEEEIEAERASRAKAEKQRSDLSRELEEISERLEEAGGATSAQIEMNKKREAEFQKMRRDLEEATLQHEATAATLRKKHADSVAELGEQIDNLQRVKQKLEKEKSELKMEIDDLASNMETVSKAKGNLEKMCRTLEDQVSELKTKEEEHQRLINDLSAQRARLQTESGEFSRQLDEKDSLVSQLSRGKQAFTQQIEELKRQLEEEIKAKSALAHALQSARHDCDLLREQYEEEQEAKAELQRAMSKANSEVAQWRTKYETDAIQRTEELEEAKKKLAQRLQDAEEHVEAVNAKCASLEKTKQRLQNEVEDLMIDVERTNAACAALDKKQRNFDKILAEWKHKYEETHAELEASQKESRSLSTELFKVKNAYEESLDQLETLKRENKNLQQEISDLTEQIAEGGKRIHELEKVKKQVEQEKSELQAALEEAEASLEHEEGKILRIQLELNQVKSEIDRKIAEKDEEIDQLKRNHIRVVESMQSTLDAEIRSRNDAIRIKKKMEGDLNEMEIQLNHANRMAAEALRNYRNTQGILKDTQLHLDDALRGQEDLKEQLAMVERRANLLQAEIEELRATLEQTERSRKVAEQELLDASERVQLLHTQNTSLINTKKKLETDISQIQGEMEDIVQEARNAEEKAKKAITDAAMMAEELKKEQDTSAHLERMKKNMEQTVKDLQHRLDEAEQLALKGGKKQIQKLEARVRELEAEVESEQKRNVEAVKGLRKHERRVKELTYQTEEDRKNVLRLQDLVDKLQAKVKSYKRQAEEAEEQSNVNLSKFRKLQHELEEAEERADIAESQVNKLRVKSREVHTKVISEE
Chain of wild-type β-tropomyosin (human TPM2) with N-terminal Met–Ala–Ser extension (natural protein) (P07951 whole entry): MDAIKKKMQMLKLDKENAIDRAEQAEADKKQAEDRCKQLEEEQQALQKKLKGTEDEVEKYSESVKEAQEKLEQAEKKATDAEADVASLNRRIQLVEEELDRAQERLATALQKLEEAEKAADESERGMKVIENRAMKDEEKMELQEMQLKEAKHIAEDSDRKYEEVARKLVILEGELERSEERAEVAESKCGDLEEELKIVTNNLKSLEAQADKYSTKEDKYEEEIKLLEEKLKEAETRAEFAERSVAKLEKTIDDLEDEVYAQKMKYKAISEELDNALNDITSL
Chain of wild-type γ-tropomyosin (Tpm3.12, human TPM3) with N-terminal Met–Ala–Ser extension (natural protein) (Q5KR47 whole entry): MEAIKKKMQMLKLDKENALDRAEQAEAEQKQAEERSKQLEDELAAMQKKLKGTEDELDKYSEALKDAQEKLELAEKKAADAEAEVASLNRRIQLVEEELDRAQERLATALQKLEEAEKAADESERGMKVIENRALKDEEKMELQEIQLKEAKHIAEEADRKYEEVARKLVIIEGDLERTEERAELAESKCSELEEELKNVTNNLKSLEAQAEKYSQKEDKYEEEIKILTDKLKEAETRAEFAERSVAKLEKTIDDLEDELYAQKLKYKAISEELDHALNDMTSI
Chain of wild-type α-tropomyosin (Tpm1.1) with N-terminal Met–Ala–Ser extension (natural protein) (P04692 whole entry): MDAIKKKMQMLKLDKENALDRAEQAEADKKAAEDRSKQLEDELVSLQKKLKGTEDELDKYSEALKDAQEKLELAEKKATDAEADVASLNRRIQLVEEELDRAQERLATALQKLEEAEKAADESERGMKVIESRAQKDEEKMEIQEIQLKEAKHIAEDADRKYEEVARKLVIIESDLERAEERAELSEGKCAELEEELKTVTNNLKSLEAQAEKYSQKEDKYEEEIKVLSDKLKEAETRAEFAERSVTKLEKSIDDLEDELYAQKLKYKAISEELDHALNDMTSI
Chain of troponin (rabbit skeletal muscle troponin complex) (P02643 whole entry, looked up): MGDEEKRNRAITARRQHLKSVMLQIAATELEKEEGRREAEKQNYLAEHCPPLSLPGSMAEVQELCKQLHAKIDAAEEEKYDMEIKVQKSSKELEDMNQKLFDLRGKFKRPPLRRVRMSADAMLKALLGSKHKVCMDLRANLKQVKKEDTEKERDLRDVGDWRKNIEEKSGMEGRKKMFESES
Chain of troponin (rabbit skeletal muscle troponin complex) (P02586 whole entry, looked up): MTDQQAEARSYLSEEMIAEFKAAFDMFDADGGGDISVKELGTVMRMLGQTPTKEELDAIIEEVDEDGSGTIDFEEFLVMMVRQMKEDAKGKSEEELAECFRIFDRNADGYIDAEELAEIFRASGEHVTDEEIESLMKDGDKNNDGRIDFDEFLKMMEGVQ

Substance: myosin subfragment-1 (S1), lacking regulatory light chains (domain or fragment)
stoichiometry N ([1]; scale: mol actin per mol S1): 4.1

Substance: troponin (rabbit skeletal muscle troponin complex) (from UniProt P02586 1-160; P02643 1-182)
stoichiometry N ([1]; scale: mol actin per mol troponin): 7.5

Substance: wild-type α-tropomyosin (Tpm1.1) with N-terminal Met–Ala–Ser extension (natural protein)
stoichiometry N [1, 3]: 6.9

Substance: wild-type α-tropomyosin (Tpm1.1) with N-terminal Met–Ala–Ser extension K168E
other: N (relative number of disordered fluorophores) [2, 4]: 0.17 rel. units | other: N (relative number of disordered fluorophores) [2, 5]: 0.06 rel. units | other: N (relative number of disordered fluorophores) [2, 6]: 0.11 rel. units | other: N (relative number of disordered fluorophores) [2, 7]: 0.23 rel. units | other: N (relative number of disordered fluorophores) [2, 8]: 0.34 rel. units | other: N (relative number of disordered fluorophores) [2, 9]: 0.36 rel. units

Substance: wild-type α-tropomyosin (Tpm1.1) with N-terminal Met–Ala–Ser extension R167H
other: N (relative number of disordered fluorophores) [2, 4]: 0.14 rel. units | other: N (relative number of disordered fluorophores) [2, 5]: 0.085 rel. units | other: N (relative number of disordered fluorophores) [2, 6]: 0.2 rel. units | other: N (relative number of disordered fluorophores) [2, 7]: 0.24 rel. units | other: N (relative number of disordered fluorophores) [2, 8]: 0.44 rel. units | other: N (relative number of disordered fluorophores) [2, 9]: 0.35 rel. units

Substance: wild-type β-tropomyosin (human TPM2) with N-terminal Met–Ala–Ser extension R91G
other: N (relative number of disordered fluorophores) ([2]; S1 (no nucleotide), Actin + Tpm + Tn, + Ca2+, parent: est. 0.27): 0.26 rel. units | other: N (relative number of disordered fluorophores) ([2]; S1 (no nucleotide), Actin + Tpm + Tn, - Ca2+, parent: est. 0.29): 0.28 rel. units | other: N (relative number of disordered fluorophores) ([2]; S1 + ADP, Actin + Tpm + Tn, + Ca2+, parent: est. 0.30): 0.28 rel. units | other: N (relative number of disordered fluorophores) ([2]; S1 + ADP, Actin + Tpm + Tn, - Ca2+, parent: est. 0.32): 0.27 rel. units | other: N (relative number of disordered fluorophores) ([2]; S1 + ATP, Actin + Tpm + Tn, + Ca2+, parent: est. 0.45): 0.61 rel. units | other: N (relative number of disordered fluorophores) ([2]; S1 + ATP, Actin + Tpm + Tn, - Ca2+, parent: est. 0.60): 0.38 rel. units | other: N (relative number of disordered fluorophores) ([2]; S1 + Tpm, no troponin, no nucleotide, parent: est. 0.28): 0.27 rel. units

Substance: wild-type γ-tropomyosin (Tpm3.12, human TPM3) with N-terminal Met–Ala–Ser extension (natural protein)
stoichiometry N [1, 3]: 6.9

Substance: wild-type γ-tropomyosin (Tpm3.12, human TPM3) with N-terminal Met–Ala–Ser extension E173A
other: N (relative number of disordered fluorophores) ([2]; S1 (no nucleotide), Actin + Tpm + Tn, + Ca2+, parent: est. 0.17): 0.1 rel. units | other: N (relative number of disordered fluorophores) [2, 10]: 0.1 rel. units | other: N (relative number of disordered fluorophores) [2, 11]: 0.13 rel. units | other: N (relative number of disordered fluorophores) [2, 12]: 0.13 rel. units | other: N (relative number of disordered fluorophores) ([2]; S1 + ATP, Actin + Tpm + Tn, + Ca2+, parent: est. 0.18): 0.28 rel. units | other: N (relative number of disordered fluorophores) [2, 13]: 0.35 rel. units | other: N (relative number of disordered fluorophores) [2, 14]: 0.15 rel. units

Substance: α-tropomyosin (rat TPM1) R167H with N-terminal Met–Ala–Ser extension (natural protein)
stoichiometry N [1, 3]: 6.9

Substance: β-tropomyosin (human TPM2) E117K with N-terminal Met–Ala–Ser extension (natural protein)
stoichiometry N [1, 3]: 6.9

Substance: β-tropomyosin (human TPM2) Q147P with N-terminal Met–Ala–Ser extension (natural protein)
stoichiometry N [1, 3]: 6.9

Substance: β-tropomyosin (human TPM2) R91G with N-terminal Met–Ala–Ser extension (natural protein)
stoichiometry N [1, 3]: 6.9

Substance: γ-tropomyosin (Tpm3.12, human TPM3) E173A with N-terminal Met–Ala–Ser extension (natural protein)
stoichiometry N [1, 3]: 6.9

Next, values leading:

stoichiometry N [1, 3]: 6.9
Substance: wild-type β-tropomyosin (human TPM2) with N-terminal Met–Ala–Ser extension (natural protein)

other: N (relative number of disordered fluorophores) ([2]; S1 (no nucleotide), Actin + Tpm + Tn, + Ca2+, parent: est. 0.40): 0.38 rel. units | other: N (relative number of disordered fluorophores) ([2]; S1 (no nucleotide), Actin + Tpm + Tn, - Ca2+, parent: est. 0.25): 0.28 rel. units | other: N (relative number of disordered fluorophores) ([2]; S1 + ADP, Actin + Tpm + Tn, + Ca2+, parent: est. 0.39): 0.39 rel. units | other: N (relative number of disordered fluorophores) ([2]; S1 + ADP, Actin + Tpm + Tn, - Ca2+, parent: est. 0.28): 0.33 rel. units | other: N (relative number of disordered fluorophores) ([2]; S1 + ATP, Actin + Tpm + Tn, + Ca2+, parent: est. 0.68): 0.6 rel. units | other: N (relative number of disordered fluorophores) ([2]; S1 + ATP, Actin + Tpm + Tn, - Ca2+, parent: est. 0.44): 0.53 rel. units | other: N (relative number of disordered fluorophores) ([2]; S1 + Tpm, no troponin, no nucleotide, parent: est. 0.26): 0.39 rel. units
Substance: wild-type β-tropomyosin (human TPM2) with N-terminal Met–Ala–Ser extension E117K

other: N (relative number of disordered fluorophores) ([2]; S1 (no nucleotide), Actin + Tpm + Tn, + Ca2+, parent: est. 0.15): 0.2 rel. units | other: N (relative number of disordered fluorophores) [2, 10]: 0.17 rel. units | other: N (relative number of disordered fluorophores) [2, 11]: 0.17 rel. units | other: N (relative number of disordered fluorophores) [2, 12]: 0.16 rel. units | other: N (relative number of disordered fluorophores) ([2]; S1 + ATP, Actin + Tpm + Tn, + Ca2+, parent: est. 0.32): 0.095 rel. units | other: N (relative number of disordered fluorophores) [2, 13]: 0.1 rel. units | other: N (relative number of disordered fluorophores) [2, 14]: 0.15 rel. units
Substance: wild-type γ-tropomyosin (Tpm3.12, human TPM3) with N-terminal Met–Ala–Ser extension R90P

stoichiometry N [1, 3]: 6.9
Substance: α-tropomyosin (rat TPM1) K168E with N-terminal Met–Ala–Ser extension (natural protein)

stoichiometry N [1, 3]: 6.9
Substance: γ-tropomyosin (Tpm3.12, human TPM3) E150A with N-terminal Met–Ala–Ser extension (natural protein)

stoichiometry N [1, 3]: 6.9
Substance: γ-tropomyosin (Tpm3.12, human TPM3) R90P with N-terminal Met–Ala–Ser extension (natural protein)
